According to patent US20230227577A1 (MYTHIC THERAPEUTICS, published 2023):

How the values were obtained:
mouse DLL3 on CHO cells = molecular target: T1, mouse DLL3 on CHO cells (mouse, UniProt O88516 33-592); assay: flow cytometry (FACS) on CHO cells expressing mouse DLL3
T1 construct: whole, on cells; also called CHO cells expressing mouse DLL3
T1 sequence (looked up): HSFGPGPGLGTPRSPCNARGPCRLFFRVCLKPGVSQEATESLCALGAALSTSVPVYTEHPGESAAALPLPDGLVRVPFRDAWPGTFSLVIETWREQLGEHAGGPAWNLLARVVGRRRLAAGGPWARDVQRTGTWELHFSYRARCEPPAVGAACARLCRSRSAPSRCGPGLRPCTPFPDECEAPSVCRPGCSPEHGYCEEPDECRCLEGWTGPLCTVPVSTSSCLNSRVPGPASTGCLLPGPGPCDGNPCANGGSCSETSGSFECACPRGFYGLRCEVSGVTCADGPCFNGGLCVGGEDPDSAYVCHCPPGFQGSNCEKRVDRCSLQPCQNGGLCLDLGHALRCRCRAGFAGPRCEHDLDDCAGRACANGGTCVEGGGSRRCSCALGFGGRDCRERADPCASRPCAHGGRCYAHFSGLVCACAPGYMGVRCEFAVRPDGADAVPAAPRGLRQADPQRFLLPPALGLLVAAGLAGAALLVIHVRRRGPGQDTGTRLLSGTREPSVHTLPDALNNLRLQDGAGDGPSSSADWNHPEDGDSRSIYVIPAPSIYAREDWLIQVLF
Method: (§1) Additional experiments were carried out to further characterize the binding properties of the anti-DLL3 constructs. Binding properties tested include dissociation constant (KD), off-rate (koff), binding to DLL3 protein by ELISA and binding to CHO cells expressing human, cyno or mouse DLL3. To obtain off-rate (koff), human biotinylated DLL3 was immobilized on Octet SA tips, and cynomolgus or mouse DLL3 was immobilized on Octet AR2G tips. For each DLL3 protein, the binding to a dilution series of each anti-DLL3 construct was measured using Fortebio Octet Red. The dissociation constant (KD), off-rate (koff) and other kinetic parameters for each anti-DLL3 construct were calculated using a 1:1 binding model. In addition, binding of these anti-DLL3 constructs to CHO cells expressing human, cyno or mouse DLL3 protein was analyzed using flow cytometry (FACS).

[1] = molecular target: T2, DLL3 target antigen coated on Octet SA tips (binning experiment) (Homo sapiens (Human), UniProt Q9NYJ7 27-492, Probably biotinylated for capture on streptavidin (SA) tips. The site is not stated.); assay: Octet binning on DLL3-coated SA tips; competitor: 3HCE4
T2 sequence: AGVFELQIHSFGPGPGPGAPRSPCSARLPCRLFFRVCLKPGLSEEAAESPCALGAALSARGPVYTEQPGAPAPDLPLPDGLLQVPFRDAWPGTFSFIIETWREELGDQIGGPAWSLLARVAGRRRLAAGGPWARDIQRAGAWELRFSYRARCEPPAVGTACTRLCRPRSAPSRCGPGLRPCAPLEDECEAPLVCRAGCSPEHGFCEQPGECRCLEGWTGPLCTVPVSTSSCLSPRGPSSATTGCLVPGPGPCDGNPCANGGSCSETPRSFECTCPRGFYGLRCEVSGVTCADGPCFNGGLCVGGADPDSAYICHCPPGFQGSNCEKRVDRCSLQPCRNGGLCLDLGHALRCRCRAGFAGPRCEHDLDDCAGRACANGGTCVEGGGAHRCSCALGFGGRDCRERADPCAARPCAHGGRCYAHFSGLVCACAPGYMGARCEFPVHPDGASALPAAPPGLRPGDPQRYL
Method: (§2) Antibody binning experiments were carried out for 5 anti-DLL3 VHHs and an anti-human DLL3 BiTE (SEQ ID NO: 756). The target antigen was coated on a series of Octet SA tips. Each series of tips was first soaked in a periplasmic extract containing one specific VHH. After the response signals reached saturation, the tips were transferred to a mix of PEs containing again the first VHH (at the same concentration) plus a different VHH (termed secondary VHH) for each tip of the series. Secondary VHH that still bind the target antigen in the presence of the first VHH will show an increased response, as compared to the binding response of the first VHH alone. This was repeated for each VHH as primary VHH until all VHH were tested against each other in both directions (as primary and as secondary binder). From the response data, the bins were deduced for each VHH. 2HCE117 and 3HCE4 show competition with the human DLL3 BiTEs, whereas 3HCE56 and 3HCE87 show a partial competition.

[2] = molecular target: T2, DLL3 target antigen coated on Octet SA …; assay: Octet binning on DLL3-coated SA tips; competitor: 2HCE27
Method: as §2

[3] = molecular target: T2, DLL3 target antigen coated on Octet SA …; assay: Octet binning on DLL3-coated SA tips; competitor: 2HCE117
Method: as §2

[4] = molecular target: T3, recombinant human DLL3 protein (human, UniProt Q9NYJ7 27-492, limits assumed); assay: Fortebio Octet Red, DLL3 immobilised on tips, dilution series of the VHH, 1:1 binding model; KD error 1.39E-11; Full R2 0.9994
T3 construct: also called rhu DLL3; human biotinylated DLL3
T3 sequence (looked up): T2 sequence
Method: as §1

B1: 2HCE27 anti-DLL3 VHH (VHH)
VHH: QVQLQESGGGLVQAGGSLRLSCAASGRTFRSYAMGWFRQAPGKEREFIAVIIMSDGSTSYADSVKGRFTISRDNAKNTLYLQMNSLKPEDTAVYYCAARRDYFTGVYDYWGQGTQVTVSS
notes: In the binning assay it was used as a periplasmic extract; also called anti-DLL3 (2HCE27)
- binding result (mouse DLL3 on CHO cells): binds
- binning response (unit not given) [1]: 53.4
- binning response (unit not given) [2]: 0
- binning response (unit not given) [3]: 19900
- Kd [4]: 7.89 nM
